To fix the notation:
B1: Syntaxin-17 (Homo sapiens), P56962 (parent)
chain: MSEDEEKVKLRRLEPAIQKFIKIVIPTDLERLRKHQINIEKYQRCRIWDKLHEEHINAGRTVQQLRSNIREIEKLCLKVRKDDLVLLKRMIDPVKEEASAATAEFLQLHLESVEELKKQFNDEETLLQPPLTRSMTVGGAFHTTEAEASSQSLTQIYALPEIPQDQNAAESWETLEADLIELSQLVTDFSLLVNSQQEKIDSIADHVNSAAVNVEEGTKNLGKAAKYKLAALPVAGALIGGMVGGPIGLLAGFKVAGIAAALGGGVLGFTGGKLIQRKKQKMMEKLTSSCPDLPSQTDKKCS
B2: Syntaxin-17 (Homo sapiens), P56962 (parent)
chain: B1 chain
partner: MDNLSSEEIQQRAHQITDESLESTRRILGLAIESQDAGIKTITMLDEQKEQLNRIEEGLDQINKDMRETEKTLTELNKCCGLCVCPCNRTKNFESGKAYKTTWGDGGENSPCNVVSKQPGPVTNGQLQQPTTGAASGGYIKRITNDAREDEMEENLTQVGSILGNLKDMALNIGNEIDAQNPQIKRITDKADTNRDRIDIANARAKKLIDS

Variants of B1 are the subject of the first test. Particulars: with acsl3_human ACSL3, O95573.
acsl3_human ACSL3, O95573, sequence (O95573 whole entry): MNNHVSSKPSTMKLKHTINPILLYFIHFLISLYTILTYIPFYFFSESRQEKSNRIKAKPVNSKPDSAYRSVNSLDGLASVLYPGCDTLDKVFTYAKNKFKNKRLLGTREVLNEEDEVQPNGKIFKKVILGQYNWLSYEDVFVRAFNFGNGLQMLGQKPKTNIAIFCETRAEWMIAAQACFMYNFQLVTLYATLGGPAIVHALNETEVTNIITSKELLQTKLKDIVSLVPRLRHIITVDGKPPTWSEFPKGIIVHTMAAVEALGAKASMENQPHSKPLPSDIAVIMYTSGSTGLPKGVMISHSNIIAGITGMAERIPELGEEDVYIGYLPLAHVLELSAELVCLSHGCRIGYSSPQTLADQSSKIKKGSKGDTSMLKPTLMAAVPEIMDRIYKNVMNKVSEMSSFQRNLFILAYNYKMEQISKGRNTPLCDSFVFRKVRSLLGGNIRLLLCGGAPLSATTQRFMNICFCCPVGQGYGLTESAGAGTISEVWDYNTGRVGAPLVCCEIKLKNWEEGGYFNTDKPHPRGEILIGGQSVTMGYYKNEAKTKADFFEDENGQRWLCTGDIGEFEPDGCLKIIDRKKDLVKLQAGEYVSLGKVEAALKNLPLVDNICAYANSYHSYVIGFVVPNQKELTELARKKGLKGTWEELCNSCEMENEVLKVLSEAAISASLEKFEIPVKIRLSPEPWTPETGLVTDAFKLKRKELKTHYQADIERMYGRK
On to K254C, for which the “effect of a mutation on the interaction” value was “with no effect”.

Variants of B2 are the subject of a further test. Particulars: with snp23_human SNAP23, O00161.
Turning to K254C, the “effect of a mutation on the interaction” value was “decreasing interaction strength”.

Source of the values: IntAct's records for PubMed 29549094.
